Results from patent publication US20250026846A1 (JCR PHARMACEUTICALS, published 2025).
Numbering of substitutions follows the chain as printed. Read-outs that look alike come from different tables or passages of the source. One block for each binder: values may come before it.

How the values were obtained:
Experiment in all cases: BLI (Octet RED96), His-tagged TfR ECD on Ni-NTA sensor
[1] = biological target: T1, recombinant monkey TfR (r monkey TfR: Sino Biological Inc.), crab-eating monkey TfR extracellular region with … (crab-eating monkey (Macaca fascicularis))
T1 construct: Bought from Sino Biological; also called r monkey TfR-ECD (Histag); not shown: histidine tag at the N-terminus
T1 chain: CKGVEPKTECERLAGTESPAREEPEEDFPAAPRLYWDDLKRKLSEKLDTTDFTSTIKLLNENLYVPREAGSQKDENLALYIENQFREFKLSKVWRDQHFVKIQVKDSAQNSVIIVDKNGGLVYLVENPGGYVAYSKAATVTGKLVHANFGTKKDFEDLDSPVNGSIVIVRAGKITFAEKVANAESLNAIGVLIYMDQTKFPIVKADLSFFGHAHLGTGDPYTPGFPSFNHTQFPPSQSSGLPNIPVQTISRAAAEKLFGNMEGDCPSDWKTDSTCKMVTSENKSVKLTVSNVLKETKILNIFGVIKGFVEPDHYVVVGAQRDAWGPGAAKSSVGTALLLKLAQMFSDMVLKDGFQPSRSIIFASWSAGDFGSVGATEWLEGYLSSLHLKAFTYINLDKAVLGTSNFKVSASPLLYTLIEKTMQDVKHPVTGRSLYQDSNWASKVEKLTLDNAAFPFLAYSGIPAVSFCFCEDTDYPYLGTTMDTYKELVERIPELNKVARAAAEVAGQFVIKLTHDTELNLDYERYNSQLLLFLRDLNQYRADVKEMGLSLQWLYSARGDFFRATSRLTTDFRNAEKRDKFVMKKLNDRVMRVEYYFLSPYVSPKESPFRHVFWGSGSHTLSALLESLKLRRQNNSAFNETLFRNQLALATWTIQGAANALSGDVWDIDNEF
Procedure: (§1) Each of the sample solutions prepared above by 2-fold dilution steps was added, 200 μL/well, to a 96-well plate, black (Greiner Bio-One Inc.). Each of the r human TfR-ECD (Histag) solution and the r monkey TfR-ECD (Histag) solutions prepared above was added, 200 μL/well, to predetermined wells. To respective wells for baseline, dissociation and washing were added HBS-P+, 200 μL/well. To wells for regeneration were added 10 mM Glycine-HCl (pH 1.7), 200 μL/well. To wells for activation was added 0.5 mM NiCl₂ solution, 200 μL/well. The plate and biosensor (Biosensor/Ni-NTA: ForteBio Inc., a division of Pall Corporation) were set in the prescribed positions of Octet RED96.
(§2) The measurement was performed at 25 to 30° C.
(§3) The affinity of the humanized anti-hTfR antibodies obtained in Example 13 to human and monkey TfRs was measured by the method described in Example 7.

[2] = biological target: T2, recombinant human TfR (r human TfR: Sino Biological Inc.), hTfR extracellular region with a histidine tag at … (human, UniProt P02786 89-760)
T2 construct: Bought from Sino Biological; also called r human TfR-ECD (Histag); recombinant hTfR; not shown: histidine tag at the N-terminus
Procedure: as §1, §2, §3

[3] = biological target: T1, recombinant monkey TfR (r monkey TfR: …)
[4] = biological target: T2, recombinant human TfR (r human TfR: …); remark: listed apart in the source

Kd [1]: 1.77 nM | koff [1]: 0.000876 s⁻¹ | kon [1]: 495000 M⁻¹ s⁻¹ | Kd [2]: 0.0239 nM | koff [2]: 1.45e-05 s⁻¹ | kon [2]: 606000 M⁻¹ s⁻¹
B1: humanized anti-hTfR antibody No. 3-2 (antibody, human IgG1, kappa)
light: DIVMTQSPLSLPVTPGEPASISCRSSQSLVHSNGNTYLHWYLQKPGQSPQLLIYKVSNRFSGVPDRFSGSGSGTDFTLKISRVEAEDVGVYYCSQSTHVPWTFGQGTKVEIKRTVAAPSVFIFPPSDEQLKSGTASVVCLLNNFYPREAKVQWKVDNALQSGNSQESVTEQDSKDSTYSLSSTLTLSKADYEKHKVYACEVTHQGLSSPVTKSFNRGEC
heavy: not shown
notes: IgG1

Kd [3]: < 0.001 nM | koff [3]: < 1e-07 s⁻¹ | kon [3]: 357000 M⁻¹ s⁻¹ | Kd [4]: < 0.001 nM | koff [4]: < 1e-07 s⁻¹ | kon [4]: 729000 M⁻¹ s⁻¹
B2: Fab GS3-LAMAN (other)
light: B1 light with S7T, P12S, E17Q
heavy: EVQLVQSGAEVKKPGESLKISCKGSGYSFMNYWLGWVRQMPGKGLEWMGDIYPGGDYPTYSEKFKVQVTISADKSISTAYLQLSSLKASDTAMYYCARSGNYDEVAYWGQGTLVTVSSASTKGPSVFPLAPSSKSTSGGTAALGCLVKDYFPEPVTVSWNSGALTSGVHTFPAVLQSSGLYSLSSVVTVPSSSLGTQTYICNVNHKPSNTKVDKKVEPKSCDKTHTGGGGSGGGGSGGGGSGGYETCPTVQPNMLNVHLLPHTHDDVGWLKTVDQYFYGIKNDIQHAGVQYILDSVISALLADPTRRFIYVEIAFFSRWWHQQTNATQEVVRDLVRQGRLEFANGGWVMNDEAATHYGAIVDQMTLGLRFLEDTFGNDGRPRVAWHIDPFGHSREQASLFAQMGFDGFFFGRLDYQDKWVRMQKLEMEQVWRASTSLKPPTADLFTGVLPNGYNPPRNLCWDVLCVDQPLVEDPRSPEYNAKELVDYFLNVATAQGRYYRTNHTVMTMGSDFQYENANMWFKNLDKLIRLVNAQQAKGSSVHVLYSTPACYLWELNKANLTWSVKHDDFFPYADGPHQFWTGYFSSRPALKRYERLSYNFLQVCNQLEALVGLAANVGPYGSGDSAPLNEAMAVLQHHDAVSGTSRQHVANDYARQLAAGWGPCEVLLSNALARLRGFKDHFTFCQQLNISICPLSQTAARFQVIVYNPLGRKVNWMVRLPVSEGVFVVKDPNGRTVPSDVVIFPSSDSQAHPPELLFSASLPALGFSTYSVAQVPRWKPQARAPQPIPRRSWSPALTIENEHIRATFDPDTGLLMEIMNMNQQLLLPVRQTFFWYNASIGDNESDQASGAYIFRPNQQKPLPVSRWAQIHLVKTPLVQEVHQNFSAWCSQVVRLYPGQRHLELEWSVGPIPVGDTWGKEVISRFDTPLETKGRFYTDSNGREILERRRDYRPTWKLNQTEPVAGNYYPVNTRIYITDGNMQLTVLTDRSQGGSSLRDGSLELMVHRRLLKDDGRGVSEPLMENGSGAWVRGRHLVLLDTAQAAAAGHRLLAEQEVLAPQVVLAPGGGAAYNLGAPPRTQFSGLRRDLPPSVHLLTLASWGPEMVLLRLEHQFAVGEDSGRNLSAPVTLNLRDLFSTFTITRLQETTLVANQLREAASRLKWTTNTGPTPHQTPYQLDPANITLEPMEIRTFLASVQWKEVDG
notes: also called Fab HC-GS3-LAMAN

Kd [1]: 1.91 nM | koff [1]: 0.000932 s⁻¹ | kon [1]: 488000 M⁻¹ s⁻¹ | Kd [2]: 0.0209 nM | koff [2]: 1.25e-05 s⁻¹ | kon [2]: 600000 M⁻¹ s⁻¹
B3: humanized anti-hTfR antibody No. 3-3 (antibody, human IgG1, kappa)
light: B1 light with S7T, K108R, V109L
heavy: not shown
notes: IgG1

Kd [1]: 0.26 nM | koff [1]: 0.000135 s⁻¹ | kon [1]: 519000 M⁻¹ s⁻¹ | Kd [2]: < 0.001 nM | koff [2]: < 1e-07 s⁻¹ | kon [2]: 1.01e+06 M⁻¹ s⁻¹
B4: humanized anti-hTfR antibody No. 3-4 (antibody, human IgG1, kappa, V domains shown)
VH: EVQLVQSGAEVKKPGESLKISCKGSGYSFTNYWLGWVRQMPGKGLEWMGDIYPGGDYPTYSEKFKVQVTISADKSISTAYLQWSSLKASDTAMYYCARSGNYDEVAYWGQGTLVTVSS
VL: DIVMTQTPLSLSVTPGQPASISCRSSQSLVHSNGNTYLHWYLQKPGQSPQLLIYKVSNRFSGVPDRFSGSGSGTDFTLKISRVEAEDVGVFFCSQSTHVPWTFGQGTKVEIKR
notes: IgG1
